Assays:
human CD28 [1] = target: T1, human CD28 (human, UniProt P10747 19-220, On cells CD28 is a disulfide linked homodimer and a glycoprotein; one copy of the chain is given.); test: cell-based or functional assay
human CD28 [2] = target: T1, human CD28; test: cell-based or functional assay; remark: listed apart in the source
human CD28 [3] = target: T1, human CD28; test: flow cytometry, PE-conjugated antibody on un-fixed human peripheral blood cells
Experimental: (§1) Cells were left either un-fixed or were fixed with 4% PFA for 15 minutes and washed with PBS to remove PFA. Cells were then counted and adjusted in Cell Staining Buffer and stained with exemplary anti-CD28 antibodies conjugated to PE for 30 minutes in the dark. […] Data were acquired on a BD Canto II instrument, and analyzed by FlowJo.

human CD28 [4] = target: T1, human CD28; test: flow cytometry, PE-conjugated antibody on 4% PFA-fixed human peripheral blood cells
Experimental: as §1

human CD28 [5] = target: T1, human CD28; test: flow cytometry, PE-conjugated antibody on fresh human peripheral blood cells, CD3/CD28 gating
Text: Cells were lysed with RBC lysis buffer, washed, and resuspended in Fluorofix solution (containing 1% PFA). Data were acquired on a BD Canto II instrument, and analyzed by FlowJo. […] A histogram was generated of each cell population to quantify median fluorescence intensity (MFI), and the MFI of each exemplary antibody and respective control was used to calculate the signal to noise (S:N) ratio (Table E2).

human CD28 [6] = target: T1, human CD28; test: flow cytometry, Ba/F3-human CD28 cells pre-incubated with 70 ug antibody, then 1 ug biotinylated recombinant CD86 (competitor) + labelled streptavidin
Experimental: After 15 minutes of incubation and wash, cells were incubated with PE-conjugated streptavidin. Data were acquired on a BD Canto II, and analyzed using FlowJo software.
This value was subtracted from 100 to get a reduction percentage.

T1 sequence (P10747 19-220 limits assumed): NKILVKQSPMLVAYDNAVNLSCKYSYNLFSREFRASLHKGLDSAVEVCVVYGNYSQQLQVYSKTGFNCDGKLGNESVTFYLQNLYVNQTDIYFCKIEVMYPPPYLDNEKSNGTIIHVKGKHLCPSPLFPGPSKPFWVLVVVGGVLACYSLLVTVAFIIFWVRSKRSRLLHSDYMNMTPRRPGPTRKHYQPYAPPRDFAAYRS

Binder	Division Index (with anti-CD3 UCHT1) (human CD28 [1])	Expansion Index (with anti-CD3 UCHT1) (human CD28 [1])	Percent Divided (CFSE T cell division, with plate-coated anti-CD3 UCHT1) (human CD28 [1]) [%]	Division Index (no anti-CD3) (human CD28 [2])	Expansion Index (no anti-CD3) (human CD28 [2])	Percent Divided (CFSE T cell division, no anti-CD3) (human CD28 [2]) [%]	S/N on un-fixed cells (human CD28 [3])	S/N on fixed cells (human CD28 [4])	% CD28+ population (human CD28 [5]) [%]	MFI CD28+ population (human CD28 [5])	S/N Ratio (human CD28 [5])	% Reduction (of CD86 binding) (human CD28 [6]) [%]	MFI (of CD86 binding after antibody pre-incubation) (human CD28 [6])
exemplary anti-CD28 antibody AB3 (antibody, V domains shown, Mouse hybridoma monoclonal antibody; Conjugated to PE in the staining assays; also called antibody 3; clone 3) VH: KVQLQQSGAGLVKPGASVKLSCKTSGYTFSDYIINWVKQRSGQGLEWIGWFYPGSGSINYNEKFKDKATLTADKSSSTVYMDLSRLTSEDSAVYFCARREDRGGYDAFDYWGQGTTLTVSS VL: DIQMTQSPASLSVSVGETVTITCRASENIYSNLAWYQQKQGKSPQLLVYAATKLADGVPSRFSGSGSGTQYSLRINSLQSEDFGSYYCQHFWGTPWTFGGGTKLEIK	1.08	5.11	55.7	0.0056	1.01	0.32	133	101	65.7	15600	260	90.4	796
exemplary anti-CD28 antibody AB7 (antibody, V domains shown, Mouse hybridoma monoclonal antibody; Conjugated to PE in the staining assays; also called antibody 7; clone 7) VH: KVQLQQSGAGLVKPGASVKLSCKASGYTFSDYIINWVKQRSGQGLEWIGWFYPGSGSINYNEKFKDKATLTADKSSSTVYMDLSRLTSEDSAVYFCARREDRGGYDAFDYWGQGTTLTVSS VL: DIQMTQSPASLSVSVGETVTITCRTSENIYSNLAWYQQKQGKSPQLLVYAATKLADGVPSRFSGSGSGTQYSLRINSLQPEDFGSYYCQHFWGTPWTFGGGTKLEIK	0.96	4.82	48	0.014	1.03	0.47	130	108	64.8	16200	249	88.5	955
exemplary anti-CD28 antibody AB4 (antibody, V domains shown, Mouse hybridoma monoclonal antibody; Conjugated to PE in the staining assays; also called antibody 4; clone 4) VH: EVQLQQSGPELEKPGASVKMSCKASGYSFTDYNMNWVKQSNGKSLEWIGIIDPYYGATTYNQRFKGKATLTVDKSSSTAYMQLKSLTSEDSAVYYCARFGFYGAMDYWGQGISVTVSS VL: DIQMTQSPASLSVSVGETVTITCRASENIYSNLAWYQQKQGKSPQLLVYAATKLADGVPSRFSGSGSGTQYSLRINSLQSEDFGSYYCQHFWGTPWTFGGGTKLEIK	1.08	5.07	53.8	0.0002	1	0.0091	75.4	57.7	64.9	11900	193	92.1	657
exemplary anti-CD28 antibody AB5 (antibody, V domains shown, Mouse hybridoma monoclonal antibody; Conjugated to PE in the staining assays; also called antibody 5; clone 5) VH: EVQLQQSGPELEKPGASVKMSCKASGYSFTDYNMNWVKQSNGKSLEWIGIIDPYYGATTYNQRFKGKATLTVDKSSSTAYMQLKSLTSEDSAVYYCARFGFYGAMDYWGQGISVTVSS VL: DVVVTQTPLSLPVSFGDQVSISCRSSQSLANSFGNTYLSWYLHKPGQSPQLLIYGISNRFSGVPDRFSGSGSGTDFTLKISTIKPEDLGVYYCLQGTHQPFTFGSGTTLELK	1.17	5.39	60.5	0.0082	1.01	0.64	94.5	63.3	64.7	12500	195	91.9	668
